Test results reported in patent US20200157151A1, “PEPTIDE COMPOUNDS, CONJUGATE COMPOUNDS AND USES THEREOF FOR TREATING INFLAMMATORY DISEASES” (TRANSFERT PLUS, S.E.C., priority 2017, published 2020).
Square brackets hold non-standard residues; d marks the D form. Ends that are not written are not given here. Nle = CCCC[C@H](N)C(=O)O

Target: Human recombinant Sortilin chimera protein from R&D Systems (#3154-ST) (human), Q99523
Experiment: SPR (Biacore), Sortilin immobilized on CM5 chip, peptide injected

Sequence of Human recombinant Sortilin chimera protein from R&D Systems (#3154-ST) (human), Q99523 (Q99523 78-755, change not shown): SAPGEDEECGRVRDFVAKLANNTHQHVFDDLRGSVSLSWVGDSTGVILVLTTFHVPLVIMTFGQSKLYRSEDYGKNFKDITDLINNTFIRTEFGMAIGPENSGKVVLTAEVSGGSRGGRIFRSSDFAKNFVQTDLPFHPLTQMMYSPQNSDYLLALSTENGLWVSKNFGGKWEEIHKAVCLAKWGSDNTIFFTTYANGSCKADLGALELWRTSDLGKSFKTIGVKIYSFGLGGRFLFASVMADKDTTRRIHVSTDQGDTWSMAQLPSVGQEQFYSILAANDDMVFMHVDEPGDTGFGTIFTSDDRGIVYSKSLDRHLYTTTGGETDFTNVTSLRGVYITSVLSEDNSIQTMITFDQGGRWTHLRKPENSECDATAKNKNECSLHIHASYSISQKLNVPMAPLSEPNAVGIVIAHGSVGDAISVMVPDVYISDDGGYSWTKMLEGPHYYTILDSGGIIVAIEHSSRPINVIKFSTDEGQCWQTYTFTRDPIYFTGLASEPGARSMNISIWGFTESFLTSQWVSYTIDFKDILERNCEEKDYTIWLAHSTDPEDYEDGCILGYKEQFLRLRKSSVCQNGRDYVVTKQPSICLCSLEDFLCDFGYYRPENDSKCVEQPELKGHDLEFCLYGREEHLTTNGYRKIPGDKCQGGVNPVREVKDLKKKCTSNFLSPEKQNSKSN

| Binder | Kd [nM] |
| --- | --- |
| YKSLRRKAPRWDAPLRDPALRQLL (modifications not checked) [KBP-201] | 3.3 |
| Ac-GVRAKAGVRN[Nle]FKSESY [KBP-106] | 46 |
